Entries after “also recorded” stand apart in the source; their conditions may differ.
What was measured:
Type in all cases: cell-based
[1] = system: C. albicans (ATCC 64549); test: Microbicidal microplate assay (viable counts), C. albicans
Description: The bacterial strains S. aureus 1800 (CCUG 1800), E. coli 06, and the yeast C. albicans (ATCC 64549) have been used in the microplate assay. All microorganisms were cultured in brain heart infusion medium (BHI) on a shaker over night at 37° C. A volume of the culture was transferred to a new tube with BHI and incubated for two more h on the shaker. The bacteria were harvested in the log phase, washed once and thereafter suspended in the broth used for the microplate assay. The suspension was adjusted spectrophotometrically and diluted to a concentration of approximately 4×10^6 cells per ml at 650 nm. Washed cells were suspended in 0.2% BP (pH 7.0) or BHI medium diluted 1/10 (0.34%, pH 6.7-6.9) (Difco, USA). The concentration of bacterial or fungal cells was spectrophotometrically adjusted. LF or peptide, serially diluted in BHIdil or BP by twofold steps (unless otherwise stated), were added in triplicate to the wells of a microtiterplate (200 ul per well). The bacterial or yeast cell solutions were added in 10 ul volumes to give a final concentration of approximately 2×10^5 cells per ml. The concentration of the stock solution was always checked by viable counts. The microplate was incubated at 37° C. in a humid chamber for 2 h unless otherwise stated. Five ul were taken from each well and added as a drop onto a blood agar plate and incubated over night at 37° C. In some experiments more thorough viable counts were performed and the killing was expressed as remaining colony forming units in relation to the inoculum. The lower limit for detection of microorganisms was 200 CFU/ml. The antimicrobial activity of human LF was analysed by the microbicidal assay described above. Different microbes such as C. albicans, E. coli and S. aureus were analysed with respect to their survival in lactate (not containing the inert gel base, which makes the gel unsuitable for the microbicidal assay) containing LF. […] LF was incubated together with various concentrations of lactate diluted in 0.2% bactopeptone and C. albicans for 2 h. Thereafter each solution was analysed for viable counts.

[2] = system: E. coli 06; test: Microbicidal microplate-droplet assay, E. coli; conditions: 1 mg/ml, lactate 0.2% and lactate free solution, 2 h
Description: The bacterial strains S. aureus 1800 (CCUG 1800), E. coli 06, and the yeast C. albicans (ATCC 64549) have been used in the microplate assay. All microorganisms were cultured in brain heart infusion medium (BHI) on a shaker over night at 37° C. A volume of the culture was transferred to a new tube with BHI and incubated for two more h on the shaker. The bacteria were harvested in the log phase, washed once and thereafter suspended in the broth used for the microplate assay. The suspension was adjusted spectrophotometrically and diluted to a concentration of approximately 4×10^6 cells per ml at 650 nm. Washed cells were suspended in 0.2% BP (pH 7.0) or BHI medium diluted 1/10 (0.34%, pH 6.7-6.9) (Difco, USA). The concentration of bacterial or fungal cells was spectrophotometrically adjusted. LF or peptide, serially diluted in BHIdil or BP by twofold steps (unless otherwise stated), were added in triplicate to the wells of a microtiterplate (200 ul per well). The bacterial or yeast cell solutions were added in 10 ul volumes to give a final concentration of approximately 2×10^5 cells per ml. The concentration of the stock solution was always checked by viable counts. The microplate was incubated at 37° C. in a humid chamber for 2 h unless otherwise stated. Five ul were taken from each well and added as a drop onto a blood agar plate and incubated over night at 37° C. In some experiments more thorough viable counts were performed and the killing was expressed as remaining colony forming units in relation to the inoculum. The lower limit for detection of microorganisms was 200 CFU/ml. The antimicrobial activity of human LF was analysed by the microbicidal assay described above. Different microbes such as C. albicans, E. coli and S. aureus were analysed with respect to their survival in lactate (not containing the inert gel base, which makes the gel unsuitable for the microbicidal assay) containing LF.

[3] = system: L. gasseri; test: Survival of L. gasseri in lactate with LF; conditions: rHLF 2 mg/ml in lactate, 2 h of incubation
Description: (§1) L. gasseri and L. jensenii were cultured on chocolate-agar plates for 24 h in 5% CO2/95% air. They were thereafter harvested and added to BHI (0.34%). After washing the bacterial solutions were adjusted spectrophotometrically and diluted to 8×10^6 bacteria/ml.
(§2) Washed cells were suspended in 0.2% BP (pH 7.0) or BHI medium diluted 1/10 (0.34%, pH 6.7-6.9) (Difco, USA). The concentration of bacterial or fungal cells was spectrophotometrically adjusted. LF or peptide, serially diluted in BHIdil or BP by twofold steps (unless otherwise stated), were added in triplicate to the wells of a microtiterplate (200 ul per well). The bacterial or yeast cell solutions were added in 10 ul volumes to give a final concentration of approximately 2×10^5 cells per ml. The concentration of the stock solution was always checked by viable counts. The microplate was incubated at 37° C. in a humid chamber for 2 h unless otherwise stated. Five ul were taken from each well and added as a drop onto a blood agar plate and incubated over night at 37° C. In some experiments more thorough viable counts were performed and the killing was expressed as remaining colony forming units in relation to the inoculum. The lower limit for detection of microorganisms was 200 CFU/ml.
(§3) L. gasseri survived better in the assay system than did L. jensenii. Undiluted lactate (5%) affected the survival of Lactobacillus.

[4] = system: L. jensenii; test: Survival of L. jensenii in lactate with LF; conditions: 2 mg/ml, lactate 0.2%, 2 h
Description: as §1, §2, §3

B1: rHLF: Recombinant human LF obtained from Agennix (protein, UniProt P02788 20-710, looked up)
Lactotransferrin: GRRRSVQWCAVSQPEATKCFQWQRNMRKVRGPPVSCIKRDSPIQCIQAIAENRADAVTLDGGFIYEAGLAPYKLRPVAAEVYGTERQPRTHYYAVAVVKKGGSFQLNELQGLKSCHTGLRRTAGWNVPIGTLRPFLNWTGPPEPIEAAVARFFSASCVPGADKGQFPNLCRLCAGTGENKCAFSSQEPYFSYSGAFKCLRDGAGDVAFIRESTVFEDLSDEAERDEYELLCPDNTRKPVDKFKDCHLARVPSHAVVARSVNGKEDAIWNLLRQAQEKFGKDKSPKFQLFGSPSGQKDLLFKDSAIGFSRVPPRIDSGLYLGSGYFTAIQNLRKSEEEVAARRARVVWCAVGEQELRKCNQWSGLSEGSVTCSSASTTEDCIALVLKGEADAMSLDGGYVYTAGKCGLVPVLAENYKSQQSSDPDPNCVDRPVEGYLAVAVVRRSDTSLTWNSVKGKKSCHTAVDRTAGWNIPMGLLFNQTGSCKFDEYFSQSCAPGSDPRSNLCALCIGDEQGENKCVPNSNERYYGYTGAFRCLAENAGDVAFVKDVTVLQNTDGNNNEAWAKDLKLADFALLCLDGKRKPVTEARSCHLAMAPNHAVVSRMDKVERLKQVLLHQQAKFGRNGSDCPDKFCLFQSETKNLLFNDNTECLARLHGKTTYEKYLGPQYVAGITNLKKCSTSPLLEACEFLRK
**Q.** How did the “fungicidal effect on C. albicans, rHLF in comparison to LF” value ([1]; lactate 0.2%, 2 and 20 h) turn out when B1 was run?
**A.** the stronger effect of rHLF was observed only after a longer incubation time

**Q.** And the “fungicidal effect on C. albicans, rHLF in comparison to LF” value ([1]; lactate 1%, higher LF concentrations)?
**A.** stronger effect

**Q.** And the “killing of the inoculate” value ([1]; rHLF 0.5-1.0 mg/ml, lactate 1%, 2 h)?
**A.** ~99%

**Q.** What about the “killing of E. coli, rHLF compared with LF” value [2] of the same molecule?
**A.** the most effective of the two LFs

**Q.** And the “effect on L. gasseri survival beyond that of lactate” value [3]?
**A.** no additional effects; also recorded: survived equally well

**Q.** What about the “resistance of L. jensenii to the antibacterial effect” value [4] of the same molecule?
**A.** more resistant
